± gives the standard deviation of the averaged measurements.
Legend:
MCF7 = assay: percentage of EdU-negative (G0-arrested) nuclei per well, 72 h; higher = more G0 arrest; settings: reference: sequence is the full UniProt precursor, the tested protein was the secreted form or ectodomain
hTERT-HMEC = assay: as above; settings: reference: sequence is the full UniProt precursor, the tested protein was the secreted form or ectodomain
[1] = protein concentration 0.0225 µM
[2] = protein concentration 0.0205 µM
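Further: secreted proteins added to cultured cells, EdU pulse at the end, nuclei found by Hoechst imaging, EdU status from nuclear versus surrounding ring intensity ratio, PBS as neutral control.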

Question: Which results are given for “MPGLRRDRLLTLLLLGALLSADLYFHLWPQVQRQLRPRERPRGCPCTGRASSLARDSAAAASDPGTIVHNFSRTEPRTEPAGGSHSGSSSKLQALFAHPLYNVPEEPPLLGAEDSLLASQEALRYYRRKVARWNRRHKMYREQMNLTSLDPPLQLRLEASWVQFHLGINRHGLYSRSSPVVSKLLQDMRHFPTISADYSQDEKALLGACDCTQIVKPSGVHLKLVLRFSDFGKAMFKPMRQQRDEETPVDFFYFIDFQRHNAEIAAFHLDRILDFRRVPPTVGRIVNVTKEILEVTKNEILQSVFFVSPASNVCFFAKCPYMCKTEYAVCGNPHLLEGSLSAFLPSLNLAPRLSVPNPWIRSYTLAGKEEWEVNPLYCDTVKQIYPYNNSQRLLNVIDMAIFDFLIGNMDRHHYEMFTKFGDDGFLIHLDNARGFGRHSHDEISILSPLSQCCMIKKKTLLHLQLLAQADYRLSDVMRESLLEDQLSPVLTEPHLLALDRRLQTILRTVEGCIVAHGQQSVIVDGPVEQLAPDSGQANLTS [Q96MK3]”?
Answer: percentage of EdU-negative (MCF7; protein concentration 0.014 µM): 24 ± 3.4%; percentage of EdU-negative (MCF7; protein concentration 0.14 µM): 30.6 ± 0.74%; percentage of EdU-negative (hTERT-HMEC; protein concentration 0.014 µM): 6.29 ± 0.36%; percentage of EdU-negative (hTERT-HMEC; protein concentration 0.14 µM): 27.9 ± 9.3%

Question: With “MVFLPLKWSLATMSFLLSSLLALLTVSTPSWCQSTEASPKRSDGTPFPWNKIRLPEYVIPVHYDLLIHANLTTLTFWGTTKVEITASQPTSTIILHSHHLQISRATLRKGAGERLSEEPLQVLEHPRQEQIALLAPEPLLVGLPYTVVIHYAGNLSETFHGFYKSTYRTKEGELRILASTQFEPTAARMAFPCFDEPAFKASFSIKIRREPRHLAISNMPLVKSVTVAEGLIEDHFDVTVKMSTYLVAFIISDFESVSKITKSGVKVSVYAVPDKINQADYALDAAVTLLEFYEDYFSIPYPLPKQDLAAIPDFQSGAMENWGLTTYRESALLFDAEKSSASSKLGITMTVAHELAHQWFGNLVTMEWWNDLWLNEGFAKFMEFVSVSVTHPELKVGDYFFGKCFDAMEVDALNSSHPVSTPVENPAQIREMFDDVSYDKGACILNMLREYLSADAFKSGIVQYLQKHSYKNTKNEDLWDSMASICPTDGVKGMDGFCSRSQHSSSSSHWHQEGVDVKTMMNTWTLQKGFPLITITVRGRNVHMKQEHYMKGSDGAPDTGYLWHVPLTFITSKSDMVHRFLLKTKTDVLILPEEVEWIKFNVGMNGYYIVHYEDDGWDSLTGLLKGTHTAVSSNDRASLINNAFQLVSIGKLSIEKALDLSLYLKHETEIMPVFQGLNELIPMYKLMEKRDMNEVETQFKAFLIRLLRDLIDKQTWTDEGSVSERMLRSQLLLLACVHNYQPCVQRAEGYFRKWKESNGNLSLPVDVTLAVFAVGAQSTEGWDFLYSKYQFSLSSTEKSQIEFALCRTQNKEKLQWLLDESFKGDKIKTQEFPQILTLIGRNPVGYPLAWQFLRKNWNKLVQKFELGSSSIAHMVMGTTNQFSTRTRLEEVKGFFSSLKENGSQLRCVQQTIETIEENIGWMDKNFDKIRVWLQSEKLERM [Q9NZ08]” as the sequence, how does the “percentage of EdU-negative” value (MCF7; [1]) read?
Answer: The value was 28.5 ± 2.6%.

Question: What about the “percentage of EdU-negative” value (MCF7; protein concentration 0.225 µM) of the same sequence?
Answer: Its value is 25.9 ± 1.9%.

Question: What about the “percentage of EdU-negative” value (hTERT-HMEC; [1]) of the same sequence?
Answer: The value was 5.43 ± 0.72%.

Question: What about the “percentage of EdU-negative” value (hTERT-HMEC; protein concentration 0.225 µM) of the same sequence?
Answer: Its value is 9.42 ± 1.9%.

Question: For “MPGPRVWGKYLWRSPHSKGCPGAMWWLLLWGVLQACPTRGSVLLAQELPQQLTSPGYPEPYGKGQESSTDIKAPEGFAVRLVFQDFDLEPSQDCAGDSVTISFVGSDPSQFCGQQGSPLGRPPGQREFVSSGRSLRLTFRTQPSSENKTAHLHKGFLALYQTVAVNYSQPISEASRGSEAINAPGDNPAKVQNHCQEPYYQAAAAGALTCATPGTWKDRQDGEEVLQCMPVCGRPVTPIAQNQTTLGSSRAKLGNFPWQAFTSIHGRGGGALLGDRWILTAAHTIYPKDSVSLRKNQSVNVFLGHTAIDEMLKLGNHPVHRVVVHPDYRQNESHNFSGDIALLELQHSIPLGPNVLPVCLPDNETLYRSGLLGYVSGFGMEMGWLTTELKYSRLPVAPREACNAWLQKRQRPEVFSDNMFCVGDETQRHSVCQGDSGSVYVVWDNHAHHWVATGIVSWGIGCGEGYDFYTKVLSYVDWIKGVMNGKN [Q9NZP8]”, which “percentage of EdU-negative” value (MCF7; [2]) is on record?
Answer: The value was 25.9 ± 0.29%.

Question: What about the “percentage of EdU-negative” value (MCF7; protein concentration 0.205 µM) of the same sequence?
Answer: The value was 26.4 ± 0.027%.

Question: What about the “percentage of EdU-negative” value (hTERT-HMEC; [2]) of the same sequence?
Answer: Its value is 6.35 ± 0.51%.

Question: What about the “percentage of EdU-negative” value (hTERT-HMEC; protein concentration 0.205 µM) of the same sequence?
Answer: Its value is 7.52 ± 1.6%.

Question: For “MLWLFQSLLFVFCFGPGNVVSQSSLTPLMVNGILGESVTLPLEFPAGEKVNFITWLFNETSLAFIVPHETKSPEIHVTNPKQGKRLNFTQSYSLQLSNLKMEDTGSYRAQISTKTSAKLSSYTLRILRQLRNIQVTNHSQLFQNMTCELHLTCSVEDADDNVSFRWEALGNTLSSQPNLTVSWDPRISSEQDYTCIAENAVSNLSFSVSAQKLCEDVKIQYTDTKMILFMVSGICIVFGFIILLLLVLRKRRDSLSLSTQRTQGPAESARNLEYVSVSPTNNTVYASVTHSNRETEIWTPRENDTITIYSTINHSKESKPTFSRATALDNVV [Q96DU3]”, which “percentage of EdU-negative” value (MCF7; [1]) is on record?
Answer: The value was 24.69 ± 0.12%.

Question: And the “percentage of EdU-negative” value (MCF7; protein concentration 0.225 µM)?
Answer: The value was 25 ± 1.3%.

Question: What about the “percentage of EdU-negative” value (hTERT-HMEC; [1]) of the same sequence?
Answer: Its value is 4.5 ± 0.13%.

Question: What about the “percentage of EdU-negative” value (hTERT-HMEC; protein concentration 0.225 µM) of the same sequence?
Answer: The value was 5.94 ± 1.1%.
